Experimental data reported in PMC4285857 (Proteins, 2013).

Experiments:
[1] = molecular target: T1, recombinant human IL-23R-IgG chimera (human, UniProt Q5VWK5 24-355, glycosylated); experiment: ELISA
T1 sequence (looked up): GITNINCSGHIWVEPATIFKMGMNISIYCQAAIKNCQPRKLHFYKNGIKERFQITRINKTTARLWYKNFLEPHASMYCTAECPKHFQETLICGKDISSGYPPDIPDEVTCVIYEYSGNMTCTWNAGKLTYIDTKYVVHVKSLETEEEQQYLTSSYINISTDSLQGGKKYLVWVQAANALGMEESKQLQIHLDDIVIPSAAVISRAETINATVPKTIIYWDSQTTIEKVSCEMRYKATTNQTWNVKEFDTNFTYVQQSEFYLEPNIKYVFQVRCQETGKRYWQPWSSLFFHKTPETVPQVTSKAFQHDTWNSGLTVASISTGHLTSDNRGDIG

[2] = molecular target: T1, recombinant human IL-23R-IgG chimera; experiment: SPR
[3] = molecular target: T2, H-exIL-23R, recombinant extracellular part of the human IL-23 receptor with N-terminal His6 tag (human, UniProt Q5VWK5 24-350); experiment: ELISA
T2 sequence (looked up): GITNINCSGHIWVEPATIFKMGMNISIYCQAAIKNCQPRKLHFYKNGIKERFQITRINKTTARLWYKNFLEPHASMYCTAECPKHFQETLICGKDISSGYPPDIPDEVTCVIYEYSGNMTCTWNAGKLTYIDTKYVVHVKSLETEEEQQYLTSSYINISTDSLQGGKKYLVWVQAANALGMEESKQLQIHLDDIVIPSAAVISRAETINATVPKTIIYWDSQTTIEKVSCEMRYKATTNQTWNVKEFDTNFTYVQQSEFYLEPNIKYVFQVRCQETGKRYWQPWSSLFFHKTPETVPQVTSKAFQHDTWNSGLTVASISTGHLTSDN

B1: DH-MBP-p19, double-His6-MBP-p19 fusion protein with a C-terminal 40 aa solubility-supporting prolongation (ligand, human)
chain: RAVPGGSSPAWTQCQQLSQKLCTLAWSAHPLVGHMDLREEGDEETTNDVPHIQCGDGCDPQGLRDNSQFCLQRIHQGLIFYEKLLGSDIFTGEPSLLPDSPVGQLHASLLGLSQLLQPEGHHWETQQIPSLSPSQPWQRLLLRFKILRSLQAFVAVAARVFAHGAATLSPLEKKTCTSRASSTTTTTTEIRLLTKPERKLSWLLPPLSNN
B1: binds [1].

His6-LAEAKVLANRELDKYGVSDYYKNRINPACHVLSVKSNIDWILASLP-{TolA-AviTag(biotin)} (designed binder, not fully specified) [His6-REX009-TolA-AVI] showed a Kd [2] of 1.3 nM.

For His6-LAEAKVLANRELDKYGVSDHYKNWINPARRVRPVKWLIDAILAALP-{TolA-AviTag(biotin)} (designed binder, not fully specified) [His6-REX125-TolA-AVI], the Kd [2] was roughly 1 nM.

His6-LAEAKVLANRELDKYGVSDRYKNSINRALPVAAVKWALDLILAWLP-{TolA-AviTag(biotin)} (designed binder, not fully specified) [His6-REX128-TolA-AVI]: binds [3].
